# Test results taken from patent publication US20140106371A1 (DUBLIN CITY UNIVERSITY, published 2014).
# Numbering of substitutions follows the chain as printed. Numbers in names are those of the source.
# B1: H50E (rPA-ILNm protein) (other)
# chain: RGSHHHHHHGSMAWKGEVLANNEAGQVTSIIYNPGDVITIVAAGWASYGPTQKWGPQGDREEPDQGLICHDAFCGALVMKIGNSGTIPVNTGLFRWVAPNNVQGAITLIYNDVPGTYGNNSGSFSVNIGKDQS
# B2: H50L (rPA-ILNm protein) (other)
# chain: B1 chain with E62L
# B3: H50P (rPA-ILNm protein) (other)
# chain: B1 chain with E62P
# B4: H50Q (rPA-ILNm protein) (other)
# chain: B1 chain with E62Q
# B5: H50V (rPA-ILNm protein) (other)
# chain: B1 chain with E62V
# B6: H50A (rPA-ILNm protein) (other)
# chain: AWKGEVLANNEAGQVTSIIYNPGDVITIVAAGWASYGPTQKWGPQGDREAPDQGLICHDAFCGALVMKIGNSGTIPVNTGLFRWVAPNNVQGAITLIYNDVPGTYGNNSGSFSVNIGKDQS
# notes: not shown: N-terminal RGS-6HIS tag and added vector residues (pQE30)
# B7: H50F (rPA-ILNm protein) (other)
# chain: B6 chain with A50F
# notes: as for B6
# B8: H50R (rPA-ILNm protein) (other)
# chain: B6 chain with A50R
# notes: as for B6
# B9: H50S (rPA-ILNm protein) (other)
# chain: B6 chain with A50S
# notes: as for B6
# B10: H50T (rPA-ILNm protein) (other)
# chain: B1 chain with E62T
# B11: H50K (rPA-ILNm protein) (other)
# chain: B1 chain with E62K
# Target: T1, asialotransferrin (human, UniProt P02787 20-698, N-linked glycans desialylated with neuraminidase (Clostridium perfingens), exposing terminal LacNAc (β1,4-linked galactose); partially desialylated by paragraph 70)
# T1 construct: Same polypeptide as transferrin; differs only in glycans; also called AsT
# T1 sequence (P02787 20-698 limits assumed): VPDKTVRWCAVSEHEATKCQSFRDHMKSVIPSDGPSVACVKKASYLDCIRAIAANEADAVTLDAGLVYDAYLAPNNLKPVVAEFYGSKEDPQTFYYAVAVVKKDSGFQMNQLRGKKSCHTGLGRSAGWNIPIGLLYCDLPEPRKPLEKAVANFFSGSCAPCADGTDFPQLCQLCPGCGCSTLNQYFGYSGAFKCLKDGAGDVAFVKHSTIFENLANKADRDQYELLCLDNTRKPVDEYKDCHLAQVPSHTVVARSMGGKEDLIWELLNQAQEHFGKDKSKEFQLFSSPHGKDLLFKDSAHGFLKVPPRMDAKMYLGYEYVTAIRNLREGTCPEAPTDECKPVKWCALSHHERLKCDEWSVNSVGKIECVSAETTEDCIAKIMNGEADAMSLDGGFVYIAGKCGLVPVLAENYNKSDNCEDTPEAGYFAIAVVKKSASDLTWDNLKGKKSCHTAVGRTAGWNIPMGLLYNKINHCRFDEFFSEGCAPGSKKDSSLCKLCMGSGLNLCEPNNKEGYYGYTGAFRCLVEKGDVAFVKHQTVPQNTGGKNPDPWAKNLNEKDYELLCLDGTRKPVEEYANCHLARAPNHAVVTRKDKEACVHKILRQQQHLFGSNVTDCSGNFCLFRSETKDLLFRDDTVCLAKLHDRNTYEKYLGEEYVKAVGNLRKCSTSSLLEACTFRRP
# Assay: qualitative ELLA
row,Binder,binding result
1,B1,no binding (tested: 2 µg mL^-1)
2,B2,no binding (tested: 2 µg mL^-1)
3,B3,no binding (tested: 2 µg mL^-1)
4,B4,no binding (tested: 2 µg mL^-1)
5,B5,no binding (tested: 2 µg mL^-1)
6,B6,no binding (tested: 2 µg mL^-1)
7,B7,no binding (tested: 2 µg mL^-1)
8,B8,no binding (tested: 2 µg mL^-1)
9,B9,no binding (tested: 2 µg mL^-1)
10,B10,no binding (tested: 2 µg mL^-1)
11,B11,no binding (tested: 2 µg mL^-1)
